Data from patent US20050036942A1 (Genentech, published 2005).

Key:
[1] = target: gD-tagged human PSCA expressed on transfected cells (Herpes Simplex virus; human, UniProt O43653 12-91)
murine PSCA (mPSCA) = target: T1, murine PSCA (mPSCA) (murine, UniProt P57096 21-95); test: direct ELISA, antigen coated at 1 µg/ml
T1 construct: also called muPSCA; his Mu PSCA - E. coli
T1 sequence (looked up): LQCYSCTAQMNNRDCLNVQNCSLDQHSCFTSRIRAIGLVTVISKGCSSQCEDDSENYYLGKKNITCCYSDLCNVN
Experimental: HuPSCA and murine PSCA (mPSCA) were coated overnight at 1 μg/ml onto a microtiter plate (Nunc). The anti-PSCA Mab and controls were added to the antigen-coated wells and incubated at room temperature. Unbound antibody was washed off and a horseradish peroxidase (HRP)-conjugated secondary antibody was added to the wells and incubated with the antibodies at room temperature. OPD substrate solution was finally added and concentrated sulfuric acid was used to stop the reaction. The plate was read at 492 nm using a microtiter plate reader.

B1: anti-PSCA monoclonal antibody 5F2.4H4.1E3 (antibody, V domains shown)
VH: QVQVQQPGAELVKPGAPVKLSCKASGYTFTNYWLNWVKQRPGRGLEWIGRIDPSDSEIHYDQKFKDKATLTVDKSSSTAYIQLSSLTSEDSAVYYCALTGIYAMAYWGQGTSVTVSS
VL: DIVMTQAAPSVPVTPGESVSISCRSSKSLLHSNGNTYLYWFLQRPGQSPQLLIYRMSNLASGVPDRFSGSGSGTAFTLRISRVEAEDVGVYYCLQHLEYPYTFGGGTKLELKR
[1]
  IC50: 13 nM

B2: anti-PSCA monoclonal antibody 6B8.1D7.2B3 (antibody, V domains shown)
VH: EVQLQQSGPDLEKPGASVKISCKPSGNSFTGYYIHWVKQSHGKSLEWIGRVDPNNGFTSYNQKFKGKAILTVDKSSSTAYMELRSLTSEDSAVYYCVGNFFDSWGQGTTLTVSS
VL: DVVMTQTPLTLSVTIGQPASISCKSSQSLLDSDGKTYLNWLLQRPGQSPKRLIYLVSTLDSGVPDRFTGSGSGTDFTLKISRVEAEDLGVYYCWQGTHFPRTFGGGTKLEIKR
notes: also called Asc# 2761; #2761
Murine PSCA (mPSCA)
  binding result: no binding
